For 1 sequence, activity (fold depletion) results are on record in US20150259684.

The target in the data set is T1, NM Cas9 (Neisseria meningitidis) (UniProt C9X1G5).
T1 sequence: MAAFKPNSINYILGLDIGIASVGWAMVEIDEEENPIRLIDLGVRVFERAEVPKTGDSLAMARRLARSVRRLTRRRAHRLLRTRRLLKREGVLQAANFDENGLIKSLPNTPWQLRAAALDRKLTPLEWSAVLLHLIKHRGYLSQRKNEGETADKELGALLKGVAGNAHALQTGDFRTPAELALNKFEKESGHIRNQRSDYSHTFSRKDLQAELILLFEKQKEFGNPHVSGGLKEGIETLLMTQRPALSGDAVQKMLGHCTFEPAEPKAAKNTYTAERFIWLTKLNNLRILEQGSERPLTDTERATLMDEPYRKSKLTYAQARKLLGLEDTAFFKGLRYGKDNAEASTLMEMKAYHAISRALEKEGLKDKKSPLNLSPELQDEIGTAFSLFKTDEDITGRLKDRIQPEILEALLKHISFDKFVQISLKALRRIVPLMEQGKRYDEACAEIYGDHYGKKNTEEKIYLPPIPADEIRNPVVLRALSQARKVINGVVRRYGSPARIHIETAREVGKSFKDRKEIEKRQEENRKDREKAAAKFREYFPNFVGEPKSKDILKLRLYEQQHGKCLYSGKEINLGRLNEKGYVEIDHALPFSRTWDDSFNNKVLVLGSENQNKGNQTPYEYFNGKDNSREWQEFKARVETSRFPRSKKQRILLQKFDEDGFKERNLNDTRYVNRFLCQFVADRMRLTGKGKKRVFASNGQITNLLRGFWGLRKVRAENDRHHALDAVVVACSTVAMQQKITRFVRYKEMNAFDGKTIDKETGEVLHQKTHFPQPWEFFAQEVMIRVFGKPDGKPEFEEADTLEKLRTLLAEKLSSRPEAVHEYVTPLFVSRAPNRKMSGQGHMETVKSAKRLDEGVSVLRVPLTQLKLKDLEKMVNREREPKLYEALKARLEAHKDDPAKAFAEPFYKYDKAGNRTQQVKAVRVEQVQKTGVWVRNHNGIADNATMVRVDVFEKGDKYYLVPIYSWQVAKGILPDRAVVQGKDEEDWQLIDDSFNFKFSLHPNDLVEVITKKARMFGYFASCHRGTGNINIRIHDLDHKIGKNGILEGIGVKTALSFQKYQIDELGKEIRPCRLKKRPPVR
In words: cell_activity. As to conditions: PAM NCCAGGTN depleted only 4-fold; protospacer for this value not stated.

“UACCAUCUCAAGCUUGUUGAGUUGUAGCUCCCUUUCUCAUUUCGCAGUGCUACAAU / TACCATCTCAAGCTTGTTGANCCAGGTN / NACCTGGNTCAACAAGCTTGAGATGGTA” registered an activity (fold depletion) of 4.
